Results reported in patent US20240398942A1, “USE OF ANTI-CD40 ANTIBODY” (CHIA TAI TIANQING PHARMACEUTICAL GROUP CO., LTD., priority 2021, published 2024).
Values joined by “and” are separate entries in the source; they are usually repeats but may differ in a detail not shown here. Equal entries are not always repeated.

How the values were obtained:
[1] = tested on: human B-cell lymphoma Ramos cells; assay: Efficacy of anti-CD40 antibody and anlotinib, Ramos subcutaneous xenograft mouse model; type: in vivo
Procedure: Human B-cell lymphoma Ramos cells (purchased from the Cell Bank of the Chinese Academy of Sciences) were cultured in an RPMI1640 medium containing 10% of fetal bovine serum and penicillin-streptomycin. The cells were inoculated in a 37° C./5% CO2 incubator until the logarithmic growth phase and collected for grafting.
The mice used in this study were NOD-Scid mice (purchased from Shanghai Lingchang Biotechnology Co., Ltd.) aged about 6 weeks and bred in specific pathogen-free conditions in 12/12-hour light/dark cycles. The health status of the animals was monitored daily.
Each mouse was inoculated subcutaneously with 1×10^7 Ramos cells. When the tumor grew to 80-100 mm^3, the mice were divided into groups of 10 according to the tumor volume. The administration regimen is shown in Table 10, with the first dosing day designated as DO. Antibody huC1H1-V2 and IgG2 (Biointron, Cat. No. B107803) were both formulated to desired concentrations with normal saline, and anlotinib dihydrochloride was formulated at desired concentrations with distilled water. At the end of study (D14), the animals were sacrificed by CO2 anesthesia and dissected to give the tumors. The tumors were photographed.
The tumor diameters were measured twice weekly with a vernier caliper. Tumor volume (V)=½×a×b^2, wherein a and b denote length and width, respectively; T/C (%)=(T−T0)/(C−C0)×100, wherein T and C refer to the tumor volumes of the treatment group and the IgG2 control group on day 14, respectively, and TO and C0 refer to the tumor volumes of the treatment group and IgG2 control group on day 0, respectively; the tumor growth inhibition % (TGI %)=100−T/C (%). When the tumor regressed, the tumor growth inhibition % (TGI %)=100−(T−T0)/T0×100. If the tumor volume was smaller than the initial volume, i.e., T<T0 or C<C0, the outcome was defined as partial regression (PR); if the tumors completely disappeared, i.e., the outcome was defined as complete regression (CR).

[2] = tested on: mouse colon carcinoma MC38 cells; assay: In vivo anti-tumor efficacy, colon carcinoma MC38 xenograft model; details: for Tumor volume on day 0: baseline at grouping; for Tumor volume on day 0 / Tumor volume on day 14: mean ± standard error; for T/C: TRTV/CRTV, day 14 vs solvent; for TGI: day 14
Procedure: The in vivo anti-tumor activity of antibody huC1H1-V2 was further determined in humanized CD40 transgenic mice (also referred to as hCD40 mice). Briefly, 1×10^6 mouse colon carcinoma MC38 cells (Shanghai Lanli Biotech, LTD., CO.) were injected subcutaneously on the right back of hCD40 mice. The tumor volume was measured using an electronic vernier caliper and calculated according to the formula (length×width^2)/2. When the mean tumor volume reached about 100 mm^3, 18 tumor-bearing mice were selected and randomly divided into 3 groups (6 mice per group), with the date of grouping designated as day 0. According to the administration regimen shown in Table 8, the mice were intravenously administered with the solvent (phosphate buffered saline, or PBS) or antibody huC1H1-V2 via tail veins since day 1.

B1: huC1H1-V2: humanized C1H1 anti-CD40 antibody, VH SEQ ID NO: 20 X1=S, VL SEQ ID NO: 24 X1=K X2=F, human IgG2/κ (antibody, V domains shown)
VH: EVQLVESGGGLVKPGGSLRLSCAASGFTFSNYGISWVRQAPGKGLEWVXSISSGGDNTYYPDNVKGRFTISRDNAKNSLYLQMNSLRAEDTAVYYCARAGEKAMDYWGQGTLVTVSS
VL: EIVLTQSPATLSLSPGERATLSCRASQTINNNLHWYQQKPGQAPRLLIXYASQSISGIPARFSGSGSGTDFTLTISSLEPEDFAVYXCQQFSSWPLTFGGGTKVEIK
modifications: not fully specified; variable positions X1=S; VL X1=K X2=F; IgG2/kappa constant; VH of huC1H1-V1 to huC1H1-V4; VARIANT 49 X can be A or S; VL of huC1H1-V1 to huC1H1-V4; VARIANT 49 X can be K or Y; VARIANT 87 X can be F or Y
[1]; baseline, huC1H1-V2 0.5 mg/kg i.p. once every 2 days × 8, anlotinib dihydrochloride 1 mg/kg intragastric daily × 15
  Mean tumor volume (mean ± SD) D 0: 89.3 ± 0.8 mm^3
[1]; huC1H1-V2 0.5 mg/kg i.p. once every 2 days × 8, anlotinib dihydrochloride 1 mg/kg intragastric daily × 15
  Mean tumor volume (mean ± SD) D 14: 1546.7 ± 198.5 mm^3
[1]; huC1H1-V2 0.5 mg/kg i.p., anlotinib dihydrochloride 1 mg/kg intragastric
  TGI D 14 (tumor growth inhibition rate): 58%
[1]; huC1H1-V2 0.5 mg/kg i.p., anlotinib dihydrochloride 1 mg/kg intragastric, tumor-bearing mice
  Tolerability (symptoms such as weight loss): well tolerated
[1]; vs IgG2 group, huC1H1-V2 0.5 mg/kg i.p., anlotinib dihydrochloride 1 mg/kg intragastric
  T/C D 14: 42%
[2]; 3 mg/kg i.v. Q2D × 7 doses
  Tumor volume on day 0: 111 ± 5 mm^3
  Tumor volume on day 14: 1169 mm^3 and 1169 ± 217** mm^3
[2]; 3 mg/kg i.v. Q2D
  T/C: 36%
  TGI: 64%
[2]; 10 mg/kg i.v. Q2D × 7 doses
  Tumor volume on day 0: 113 ± 8 mm^3
  Tumor volume on day 14: 1446 mm^3 and 1446 ± 467* mm^3
[2]; 10 mg/kg i.v. Q2D
  T/C: 44%
  TGI: 56%
[2]; 3 and 10 mg/kg i.v. Q2D × 7 doses, tumor-bearing mice
  Tolerability (weight loss or any symptoms): well tolerated
